Patent publication US9587002B2, “Sequence of nucleotides and peptides GSE 24.2 of dyskerin, which can induce telomerase activity, method for obtaining same, therapeutic compositions and applications thereof” (CONSEJO SUPERIOR DE INVESTIGACIONES CIENTIFICAS, priority 2005, dated 2017)

Legend:
Assay type in all cases: cell-based, human
p38 = assay: Activation of p38 by cisplatin in 293T cell lines (Western blot); settings: 293T cells stably expressing GSE 24.2 vs pLNCX; cisplatin 6 hours
Description: FIG. 2.—Cell viability and activation of the JNK and p38 death pathways in 293T cell lines: pLNCX and 24.2, treated with cisplatin. A) Cell viability. After seeding the 293T cells: expressing the empty vector (pLNCX) and GSE 24.2 (24.2) in 24-well plates, they were incubated with concentrations between 0-100 μg/ml of cisplatin. The cell viability was measured by means of the crystal violet technique after 72 hours of exposure to the drug. The data represent the mean of two experiments performed in quadruplicate. B) Activation kinetics. Subsequently, the activation of JNK and p38 was studied using antibodies that specifically recognise the active forms. As a load control, the levels of JNK-1 were detected.
The pLNCX24-2 plasmid containing GSE of the same name was transfected in a stable manner in the 293T cells and, as a control, the pLNCX empty vector was transfected. After verifying, by means of PCR, that the 24.2 cell line contained this insert (data not shown), the response to cisplatin was studied, creating a viability curve with this drug. […] JNK and p38 are MAPKs that are activated in response to genotoxic agents (Sanchez-Perez et al., 1998).
Western Blot and antibodies. 20 μg of protein were separated in SDS-polyacrylamide gels; subsequently, they were transferred to Immobilon-P membranes (Millipore) by humid transfer. […]

hTERT = assay: RT-PCR expression of hTERT in 293T cell lines after cisplatin; settings: pre-treated 0.5 μg/ml, treated 3 μg/ml cisplatin for 3 and 7 days
Description: FIG. 7.—Expression levels of different genes related to telomerase in 293T cells: pLNCX and 24.2 following treatment with cisplatin. The cells were seeded in 60-mm plates, treated with 3 μg/ml of cDDP following pre-treatment with 0.5 μg/ml of cisplatin for 3 days and, subsequently, collected at the times specified in the figure (3 and 7 days). Following the extraction of RNA, RT-PCR was performed with oligos specific for hTERT, hTR and dyskerin in order to study the expression levels of the messenger RNAs. As a starting RNA control, oligos for the amplification of GAPDH were used.
One of the explanations for the lower sensitivity of pLNCX 24.2 cells to cisplatin could be a change in the levels of some of the components of the telomerase complex. Therefore, the expression levels of different genes involved in the telomerase complex and the effect that cisplatin had on their expression were studied. To this end, the pLNCX and pLNCX 24.2 cells were pre-treated with 0.5 μg/ml and treated with 3 μg/ml of cisplatin for 3 and 7 days. Using oligos specific for hTR, hTERT and dyskerin, the expression levels of these genes and the effect of cisplatin on said expression were studied. […] This change in the sensitivity to cisplatin could explain, at least partially, the difference in sensitivity in the telomerase activity assays.
Expression of genes by RT-PCR. […]

293T cells = assay: Cell viability of 293T cell lines treated with Inhibitor of Telomerase I (crystal violet); settings: 24.2 vs pLNCX 293T cells, inhibitor 0-20 μM, 72 hours
Description: FIG. 6.—Cell viability and telomerase activity of the 293T cell lines: pLNCX and 24.2 treated with the Inhibitor of telomerase I. A) Cell viability. After seeding the 293T cells: pLNCX and 24.2 in 24-well plates, they were incubated with concentrations between 0-20 μM of the Inhibitor of Telomerase I. The cell viability was measured by means of the crystal violet technique after 72 hours of exposure to the drug. The data represent the mean of two experiments performed in quadruplicate. B) Telomerase activity at different doses of the Inhibitor of Telomerase I. Telomerase activity of the 293T cells: 24.2 and pLNCX in the presence of different concentrations of the inhibitor of telomerase I (5-7 μM) for 3 days. The cells were seeded in 60-mm plates and subsequently treated at the specified concentrations and times.
The effect of GSE 24.2 in response to the inhibitor of telomerase I was studied. To this end, a viability curve was performed wherein the pLNCX and 24.2 cell lines were treated with increasing concentrations of the inhibitor of telomerase I (0-20 μM) for 72 hours. […]
Growth curves. […] The number of cells was determined by estimating the absorbance at 595 nm. […]

B1: GSE 24.2: 165-pb cDNA fragment (nucleotides 268 to 433) of human dyskerin, SEQ ID NO1, encoding peptide SEQ ID NO2, expressed from pLNCX plasmid (nucleic acid, listed as Homo sapiens)
DNA: GGTTTCATTAATCTTGACAAGCCCTCTAACCCCTCTTCCCATGAGGTGGTAGCCTGGATTCGACGGATACTTCGGGTGGAGAAGACAGGGCACAGTGGTACTCTGGATCCCAAGGTGACTGGTTGTTTAATCGTGTGCATAGAACGAGCCACTCGCTTGGTGAAG
modifications: expressed from pLNCX plasmid; CDS (1)..(165) Sequence GSE 24.2
dose of cisplatin required to activate p38 (p38): a greater dose of cisplatin is required to activate both kinases
hTERT expression after cisplatin in pLNCX 24.2 cells (hTERT): no reduction in expression in the pLNCX 24.2 cells until 7 days of treatment
cell viability in response to Inhibitor of Telomerase I (293T cells): more resistant to the inhibitor of telomerase I
cell viability in response to Inhibitor of Telomerase I (293T cells; listed as 24.2): increases viability
